Substitutions are numbered along the chain they refer to. Read-outs that look alike come from different tables or passages of the source.
Assays:
[1] = target: HCV E2 envelope glycoprotein (hepatitis C virus, UniProt P27958 384-746); experiment: ELISA of E2 on AP33 alanine mutants
AP33 light-chain alone = target: T1, AP33 light-chain alone (Mus musculus (Mouse), UniProt P01661 21-131); experiment: Ab2 binding screen
T1 construct: also called AP33 LC; LC

[2] = target: T2, AP33 antibody (wild type mouse monoclonal); experiment: Ab2 binding screen
T2 construct: also called WT AP33; Ab1

[3] = target: T2, AP33 antibody (wild type mouse …); experiment: SPR, B2.1A scFv amine-coupled to CM5 chip, AP33 injected, single-cycle kinetics
[4] = target: T2, AP33 antibody (wild type mouse …); experiment: SPR, B2.1A scFv amine-coupled to CM4 chip, AP33 injected, single-cycle kinetics
[5] = target: T2, AP33 antibody (wild type mouse …)

Chain of HCV E2 envelope glycoprotein (P27958 384-746 limits assumed): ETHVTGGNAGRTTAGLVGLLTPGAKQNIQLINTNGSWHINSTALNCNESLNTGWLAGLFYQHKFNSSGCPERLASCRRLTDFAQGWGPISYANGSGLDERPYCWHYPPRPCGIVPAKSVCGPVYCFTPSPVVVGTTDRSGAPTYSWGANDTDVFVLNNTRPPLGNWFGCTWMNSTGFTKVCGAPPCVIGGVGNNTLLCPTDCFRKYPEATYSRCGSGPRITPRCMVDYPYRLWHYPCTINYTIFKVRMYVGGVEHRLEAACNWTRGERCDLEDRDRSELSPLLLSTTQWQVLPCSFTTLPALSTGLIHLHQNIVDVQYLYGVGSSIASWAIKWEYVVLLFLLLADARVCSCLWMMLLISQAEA

B1: AP33 mutant YH50A (antibody, V domains shown)
VH: EVQLQESGPSLVKPSQTLSLTCSVTGDSITSGYWNWIRKFPGNKLEYMGAISYSGSTYYNLSLRSRISITRDTSKNQYYLQLNSVTTEDTATYYCALITTTTYAMDYWGQGTSVTVS
VL: NIVLTQSPVSLAVSLGQRATISCRASESVDGYGNSFLHWFQQKPGQPPKLLIYLASNLNSGVPARFSGSGSRTDFTLTIDPVEADDAATYYCQQNNVDPWTFGGGTKLEIK
reduction of binding relative to WT AP33 [1]: 90%

B2: AP33 mutant YH100A (antibody, V domains shown)
VH: B1 VH with A50Y, Y103A
VL: B1 VL
reduction of binding relative to WT AP33 [1]: 90%

B3: B2.1A antibody (antibody, V domains shown)
VH: QVQLQESGTELVKPGASVKLSCKASGYTFTNYWMHWVKQRPGQGLEWIGEINPSDGHTNYNEKFKSKATLTVDKSSSTAYMQLSSLTSEDSAVYYCARPWAFGNYGAWFAYWGQGTLVTVSA
VL: DIVMTQSPKFMSTSVGDRVSITCKASQNVRTAVAWYQQKPGQSPKALIYLASSRHTGVPDRFTGSGSGTDFTLTISNVQSEDLADYFCLQHWNYPYTFGGGTKLEIKR
notes: also called anti-Id B2.1A; Ab2
binding result (AP33 light-chain alone): no binding | binding result [2]: binds

B4: B2.1A scFv (scFv)
scFv: DANSQVQLQESGTELVKPGASVKLSCKASGYTFTNYWMHWVKQRPGQGLEWIGEINPSDGHTNYNEKFKSKATLTVDKSSSTAYMQLSSLTSEDSAVYYCARPWAFGNYGAWFAYWGQGTLVTVSAGGSGGSGGGGSGGGGSGGGASDIVMTQSPKFMSTSVGDRVSITCKASQNVRTAVAWYQQKPGQSPKALIYLASSRHTGVPDRFTGSGSGTDFTLTISNVQSEDLADYFCLQHWNYPYTFGGGTKLEIKSRHHHHHH
notes: also called single-chain variable fragment (scFv) of B2.1A; Ab2
Kd [3]: 28.6 nM | koff [3]: 0.000321 s⁻¹ | kon [3]: 11200 M⁻¹ s⁻¹ | Kd [4]: 20.7 nM | koff [4]: 0.000243 s⁻¹ | kon [4]: 11800 M⁻¹ s⁻¹ | Kd [5]: 8 nM | koff [5]: 0.00039 s⁻¹ | kon [5]: 48700 M⁻¹ s⁻¹

Reference: patent US20170283484A1 (UNITED KINGDOM RESEARCH AND INNOVATION, published 2017)
